Laboratory results from US20140017269A1 (CHILDREN S HOSPITAL MEDICAL CENTER, published 2014).

Target: the molecule itself
Test: method not given; self-association

B1: NoV P^--M2e protein (other)
chain: SRTKPFTVPILTVEEMSNSRFPIPLEKLYTGPSSAFVVQPQNGRCTTDGVLLGTTQLSAVNICTFRGDVTHIAGSHDYIMNLASQNWNNYDPTEEIPAPLGTPDFVGKIQGMLTQTTREDGSTRAHKATVSTGTVHFTPKLGSVQYTTSSLLTEVETPIRNEWGCRCNDSSDIDILQTGQNTKFTPVGVIQDGNNHQNEPQQWVLPNYSGRTGHNVHLAPAVAPTFPGEQLLFFRSTMPGCSGYPNMNLDCLLPQEWVQHFYQEAAPAQSDVALLRFVNPDTGRVLFECKLHKSGYVTVAHTGPHDLVIPPNGYFRFDSWVNQFYTLAPMGNGAGR
notes: also called NoV P^--M2e dimer
  binding result: binds
